Reference: paper PMC7441159, “The metal binding site composition of the cation diffusion facilitator protein MamM cytoplasmic domain impacts its metal responsivity” (Scientific Reports, 2020)

B1: MamM CTD H264E (domain or fragment, Magnetospirillum gryphiswaldense MSR-1, UniProt V6F235 215-318, looked up)
chain: EAVQNRIVEAAERVPGVRGVIHLRARYVGQDIWADMIIGVDPENTVEQAEEICEAVQAAVCGKIRRIESLHVSAEAREIGDTTKPSFSDQPLSFDEVMLSKVDN
notes: MamM cytoplasmic C-terminal domain (CTD), Magnetospirillum gryphiswaldense MSR-1, UniProt Q6NE57 residues 215-318; A thrombin site follows the His tag
B2: MamM CTD D249H (domain or fragment, Magnetospirillum gryphiswaldense MSR-1, UniProt V6F235 215-318, looked up)
chain: EAVQNRIVEAAERVPGVRGVIHLRARYVGQDIWAHMIIGVDPENTVEQAHEICEAVQAAVCGKIRRIESLHVSAEAREIGDTTKPSFSDQPLSFDEVMLSKVDN
notes: as for B1
B3: MamM CTD E289H (domain or fragment, Magnetospirillum gryphiswaldense MSR-1, UniProt V6F235 215-318, looked up)
chain: EAVQNRIVEAAERVPGVRGVIHLRARYVGQDIWADMIIGVDPENTVEQAHEICEAVQAAVCGKIRRIESLHVSAHAREIGDTTKPSFSDQPLSFDEVMLSKVDN
notes: as for B1
B4: MamM CTD H285D (domain or fragment, Magnetospirillum gryphiswaldense MSR-1, UniProt V6F235 215-318, looked up)
chain: EAVQNRIVEAAERVPGVRGVIHLRARYVGQDIWADMIIGVDPENTVEQAHEICEAVQAAVCGKIRRIESLDVSAEAREIGDTTKPSFSDQPLSFDEVMLSKVDN
notes: as for B1
B5: MamM CTD E289D (domain or fragment, Magnetospirillum gryphiswaldense MSR-1, UniProt V6F235 215-318, looked up)
chain: EAVQNRIVEAAERVPGVRGVIHLRARYVGQDIWADMIIGVDPENTVEQAHEICEAVQAAVCGKIRRIESLHVSADAREIGDTTKPSFSDQPLSFDEVMLSKVDN
notes: as for B1
B6: MamM CTD D249H-H285D (domain or fragment, Magnetospirillum gryphiswaldense MSR-1, UniProt V6F235 215-318, looked up)
chain: EAVQNRIVEAAERVPGVRGVIHLRARYVGQDIWAHMIIGVDPENTVEQAHEICEAVQAAVCGKIRRIESLDVSAEAREIGDTTKPSFSDQPLSFDEVMLSKVDN
notes: as for B1
B7: MamM CTD D249N (domain or fragment, Magnetospirillum gryphiswaldense MSR-1, UniProt V6F235 215-318, looked up)
chain: EAVQNRIVEAAERVPGVRGVIHLRARYVGQDIWANMIIGVDPENTVEQAHEICEAVQAAVCGKIRRIESLHVSAEAREIGDTTKPSFSDQPLSFDEVMLSKVDN
notes: as for B1
B8: MamM CTD H264E-E289H (domain or fragment, Magnetospirillum gryphiswaldense MSR-1, UniProt V6F235 215-318, looked up)
chain: EAVQNRIVEAAERVPGVRGVIHLRARYVGQDIWADMIIGVDPENTVEQAEEICEAVQAAVCGKIRRIESLHVSAHAREIGDTTKPSFSDQPLSFDEVMLSKVDN
notes: MamM cytoplasmic C-terminal domain (CTD), Magnetospirillum gryphiswaldense MSR-1, UniProt Q6NE57 residues 215-318; A thrombin site follows the His tag; also called E289H-H264E
B9: MamM CTD D249E (domain or fragment, Magnetospirillum gryphiswaldense MSR-1, UniProt V6F235 215-318, looked up)
chain: EAVQNRIVEAAERVPGVRGVIHLRARYVGQDIWAEMIIGVDPENTVEQAHEICEAVQAAVCGKIRRIESLHVSAEAREIGDTTKPSFSDQPLSFDEVMLSKVDN
notes: as for B1

Molecular target: the molecule itself
Assay: crystal structure; homodimer seen in the crystal; vapor diffusion at 293 K, protein at 20 mg/mL in 10 mM Tris pH 8.0, 150 mM NaCl, 5 mM β-mercaptoethanol and 3.375 mM metal solution (ZnCl2, CdCl2, MnCl2, NiCl2 or CuSO4)

Binding result, binds:
B1
B2
B3
B4
B5
B6
B7
B8
B9
